Laboratory results taken from patent US9435807B2, “Use of leucyl tRNA synthetase” (Medicinal Bioconvergence Research Center, priority 2011, dated 2016).

Columns and labels:
Format in all cases: biochemical
CC(C)C[C@H](N)C(=O)O [1] = experiment: Leucylation assay, LRS WT; conditions: pH 7.6, 37.0 °C
Experimental: (§1) In FIG. 5b, leucylations by LRS WT and mutants (F50A/Y52A, F50A, and Y52A) were carried out by using 4 μM tRNALeu and 50 nM enzymes.
(§2) The leucylation assay was carried out in a buffer containing 1 mM spermine, 50 mM HEPES-KOH (pH7.6), 25 mM KCl, 5 mM MgCl2, 4 mM ATP, 2 mg/ml bovine liver tRNA^Leu, various concentrations of [^3H]Leu (60 Ci/mmol), and 10-100 nM of LRS. Reactions were initiated with enzyme and conducted in a 37° C. heat block. Aliquots (10 ul) were taken at different time points and quenched on Whatman filter pads that were presoaked with 5% trichloroacetic acid (TCA). The pads were washed three times for 10 min each with cold 5% TCA, and once with cold 100% ethanol. The washed pads were then dried. Radioactivity was quantified in a scintillation counter (Beckman Coulter)

CC(C)C[C@H](N)C(=O)O [2] = experiment: ATP-PPi exchange assay, WT LRS; conditions: other: absence of tRNA^Leu (ATP-PPi exchange); pH 7.6; 37.0 °C
Experimental: The ATP-PPi exchange reaction was performed in a reaction mixture containing 2 mM [^32P]pyrophosphate (PPi) (80.70 mCi/mL), 50 mM HEPES-KOH (pH 7.6), 2 mM MgCl2, 8 mM KF, 4 mM ATP, and various concentrations of leucine and 25 nM of LRS. Reaction were initiated with enzymes and conducted in a 37° C. heat block. Aliquots (10 ul) were taken at different time points, and the reactions were stopped using lml of quenching buffer (50 mM NaPPi, 3.5% HC1O4, 2% activated charcoal). The charcoal suspension was filtered through a Whatman GF/A filter, washed four times with 5 ml of water and rinsed with 10 ml of 100% ethanol. The charcoal powder on the filters was dried, and the synthesized [^32P]ATP was counted using a scintillation counter (Beckman Coulter).

CC(C)C[C@H](N)C(=O)O [3] = tested on: T1, CC(C)C[C@H](N)C(=O)O; experiment: Leucylation assay, LRS F50A/Y52A mutant; conditions: other: LRS F50A/Y52, leucylation, substrate leucine; pH 7.6; 37.0 °C
T1 construct: made in house
Experimental: as §1, §2

[4] = other: LRS WT, leucylation, substrate leucine

LRS WT (Homo sapiens), sequence (chain, as listed by the source): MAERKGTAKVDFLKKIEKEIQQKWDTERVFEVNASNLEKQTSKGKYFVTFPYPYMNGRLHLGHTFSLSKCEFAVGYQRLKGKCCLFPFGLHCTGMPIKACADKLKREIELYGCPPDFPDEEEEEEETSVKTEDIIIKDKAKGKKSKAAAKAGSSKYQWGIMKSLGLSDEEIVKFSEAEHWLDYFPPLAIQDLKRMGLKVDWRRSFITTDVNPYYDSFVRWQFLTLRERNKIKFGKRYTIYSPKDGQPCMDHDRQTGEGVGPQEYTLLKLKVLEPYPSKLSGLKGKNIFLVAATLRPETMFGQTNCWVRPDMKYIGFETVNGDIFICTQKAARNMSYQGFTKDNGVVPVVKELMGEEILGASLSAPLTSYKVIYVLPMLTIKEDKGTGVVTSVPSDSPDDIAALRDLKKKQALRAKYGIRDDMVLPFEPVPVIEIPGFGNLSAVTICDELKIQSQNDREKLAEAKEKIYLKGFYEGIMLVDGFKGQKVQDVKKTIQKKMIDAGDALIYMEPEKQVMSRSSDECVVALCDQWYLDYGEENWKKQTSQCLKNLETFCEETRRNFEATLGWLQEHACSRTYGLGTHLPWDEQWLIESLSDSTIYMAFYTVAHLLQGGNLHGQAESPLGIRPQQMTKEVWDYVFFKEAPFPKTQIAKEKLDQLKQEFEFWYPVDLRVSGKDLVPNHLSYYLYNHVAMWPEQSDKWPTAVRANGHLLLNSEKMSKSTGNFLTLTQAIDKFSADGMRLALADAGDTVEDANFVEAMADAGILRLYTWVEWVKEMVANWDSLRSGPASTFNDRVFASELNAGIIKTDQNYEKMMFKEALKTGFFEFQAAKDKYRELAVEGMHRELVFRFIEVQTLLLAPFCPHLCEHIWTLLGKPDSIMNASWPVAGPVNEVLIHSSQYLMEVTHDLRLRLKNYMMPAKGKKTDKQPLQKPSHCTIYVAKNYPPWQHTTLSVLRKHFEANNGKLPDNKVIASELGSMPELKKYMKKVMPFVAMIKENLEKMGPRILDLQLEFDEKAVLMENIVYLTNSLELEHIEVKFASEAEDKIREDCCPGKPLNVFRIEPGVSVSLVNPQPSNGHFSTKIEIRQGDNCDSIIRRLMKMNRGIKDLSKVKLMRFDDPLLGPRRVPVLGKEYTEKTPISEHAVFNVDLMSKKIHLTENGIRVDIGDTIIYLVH
LRS (Homo sapiens), sequence (chain, as listed by the source): as above
LRS F50A/Y52 (Homo sapiens; F50A/Y52A), sequence (chain, as listed by the source F50A F50A Y52A): as the sequence (chain, as listed by the source) above, with F50A, Y52A counted along it

Question: What does the source list for LRS WT (Homo sapiens)?
Answer: Km (CC(C)C[C@H](N)C(=O)O [1]; [4]): 15.9 ± 0.4 µM; kcat (CC(C)C[C@H](N)C(=O)O [1]; [4]): 0.368 ± 0.009 s⁻¹; kcat/Km (CC(C)C[C@H](N)C(=O)O [1]; [4]): 22900 ± 570 M⁻¹ s⁻¹; Km (CC(C)C[C@H](N)C(=O)O [1]; other: presence of tRNA^Leu (leucylation)): 15.9 ± 0.4 µM

Question: Which Km (CC(C)C[C@H](N)C(=O)O [2]) does the source give for LRS (Homo sapiens) here?
Answer: The Km was 143 ± 61 µM.

Question: How did the Km (CC(C)C[C@H](N)C(=O)O [3]) turn out when LRS F50A/Y52 (Homo sapiens; F50A/Y52A) was run?
Answer: The Km was 536 ± 63 µM.
